Source: PMC5314767

T1: TFAM (human, UniProt Q00059 43-245)
T1 sequence: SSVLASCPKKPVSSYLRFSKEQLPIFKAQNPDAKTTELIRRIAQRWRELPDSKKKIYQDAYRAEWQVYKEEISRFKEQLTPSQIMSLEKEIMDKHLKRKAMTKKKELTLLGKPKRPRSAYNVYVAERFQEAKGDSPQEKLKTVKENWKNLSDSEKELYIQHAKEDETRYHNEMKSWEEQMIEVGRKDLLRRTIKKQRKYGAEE

B1: LSP -41 to -12 upstream fragment (dsDNA)
DNA 1: TGTGTTAGTTGGGGGGTGACTGTTAAAAGT
DNA 2: ACTTTTAACAGTCACCCCCCAACTAACACA
B2: LSP -41 to +10 (dsDNA)
DNA 1: TGTGTTAGTTGGGGGGTGACTGTTAAAAGTGCATACCGCCAAAAGATAAAA
DNA 2: TTTTATCTTTTGGCGGTATGCACTTTTAACAGTCACCCCCCAACTAACACA

Assays:
[1] = biological target: T1, TFAM; test: EMSA
[2] = biological target: POLRMT;TFB2M (human;human, UniProt O00411;Q9H5Q4 43-1230;21-396, |); test: fluorescence anisotropy
[3] = biological target: POLRMT (human, UniProt O00411 43-1230); test: fluorescence anisotropy
[4] = biological target: T1, TFAM; test: fluorescence anisotropy
[5] = biological target: POLRMT;TFAM (human;human, UniProt O00411;Q00059 43-1230;43-245, |); test: fluorescence anisotropy
[6] = biological target: POLRMT;TFAM;TFB2M (human;human;human, UniProt O00411;Q00059;Q9H5Q4 43-1230;43-245;21-396, ||); test: fluorescence anisotropy
Sequence of POLRMT;TFAM;TFB2M (O00411 43-1230, chain 1 of 2): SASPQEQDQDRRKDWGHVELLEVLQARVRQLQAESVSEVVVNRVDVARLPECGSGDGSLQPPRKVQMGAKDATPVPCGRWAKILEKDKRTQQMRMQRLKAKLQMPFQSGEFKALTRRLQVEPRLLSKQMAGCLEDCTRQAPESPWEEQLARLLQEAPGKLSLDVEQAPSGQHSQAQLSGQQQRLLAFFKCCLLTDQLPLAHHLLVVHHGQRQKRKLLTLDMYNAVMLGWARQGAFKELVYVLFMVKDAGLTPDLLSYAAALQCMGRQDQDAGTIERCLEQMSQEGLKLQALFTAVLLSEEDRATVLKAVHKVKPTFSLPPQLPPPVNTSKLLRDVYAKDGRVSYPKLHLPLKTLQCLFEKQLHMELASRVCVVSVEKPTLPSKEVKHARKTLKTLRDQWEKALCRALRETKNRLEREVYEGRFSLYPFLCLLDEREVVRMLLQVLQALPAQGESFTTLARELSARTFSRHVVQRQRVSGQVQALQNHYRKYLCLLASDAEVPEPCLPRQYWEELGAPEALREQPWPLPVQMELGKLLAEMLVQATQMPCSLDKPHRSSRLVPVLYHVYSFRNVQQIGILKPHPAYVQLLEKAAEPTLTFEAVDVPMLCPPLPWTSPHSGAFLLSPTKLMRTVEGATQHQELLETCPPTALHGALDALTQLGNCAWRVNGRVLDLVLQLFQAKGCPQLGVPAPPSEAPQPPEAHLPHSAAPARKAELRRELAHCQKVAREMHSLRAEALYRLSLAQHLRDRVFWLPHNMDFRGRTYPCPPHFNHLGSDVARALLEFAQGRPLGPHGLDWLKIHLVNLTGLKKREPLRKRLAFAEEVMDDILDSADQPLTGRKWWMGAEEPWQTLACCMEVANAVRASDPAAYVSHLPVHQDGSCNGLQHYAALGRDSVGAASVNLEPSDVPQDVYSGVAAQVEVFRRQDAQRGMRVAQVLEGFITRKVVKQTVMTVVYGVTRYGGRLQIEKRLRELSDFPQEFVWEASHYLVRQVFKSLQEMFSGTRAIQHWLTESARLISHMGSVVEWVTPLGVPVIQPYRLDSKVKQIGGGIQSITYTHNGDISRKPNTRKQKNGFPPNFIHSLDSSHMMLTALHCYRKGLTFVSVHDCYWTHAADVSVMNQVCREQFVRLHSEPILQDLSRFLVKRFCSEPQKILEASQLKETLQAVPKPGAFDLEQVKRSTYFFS
Sequence of POLRMT;TFAM;TFB2M (Q9H5Q4 21-396, chain 3 of 2): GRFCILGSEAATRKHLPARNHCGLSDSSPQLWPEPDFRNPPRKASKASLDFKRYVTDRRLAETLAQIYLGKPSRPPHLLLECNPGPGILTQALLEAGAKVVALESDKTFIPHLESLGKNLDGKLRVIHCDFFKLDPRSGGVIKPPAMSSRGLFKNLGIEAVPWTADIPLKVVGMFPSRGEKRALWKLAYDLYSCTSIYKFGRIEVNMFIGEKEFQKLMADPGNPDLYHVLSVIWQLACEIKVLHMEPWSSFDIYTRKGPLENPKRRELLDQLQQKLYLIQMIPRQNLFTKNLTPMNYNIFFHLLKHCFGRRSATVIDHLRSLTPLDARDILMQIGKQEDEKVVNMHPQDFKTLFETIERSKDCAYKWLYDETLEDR

Sequence of POLRMT (O00411 43-1230): as the sequence (O00411 43-1230, chain 1 of 2) above
Sequence of POLRMT;TFAM (O00411 43-1230, one chain of several): as the sequence (O00411 43-1230, chain 1 of 2) above
Sequence of POLRMT;TFB2M (O00411 43-1230, chain 1 of 2): as above
Sequence of POLRMT;TFB2M (Q9H5Q4 21-396, chain 2 of 2): as the sequence (Q9H5Q4 21-396, chain 3 of 2) above

Binder	binding result [1]	Kd [2] [nM]	Kd [3] [nM]	Kd [4] [nM]	Kd [5] [nM]	Kd [6] [nM]
B1	binds	5	8	–	–	–
B2	–	–	–	7	3	4
